Data taken from patent US12006373.

Target: human CD3ε expressed on Jurkat T cells (clone E6-1) as part of TCR-CD3 complexes (human) (UniProt P07766)
Assay: cell-based or functional assay

Sequence of human CD3ε expressed on Jurkat T cells (clone E6-1) as part of TCR-CD3 complexes (human) (P07766 23-207, one chain of several): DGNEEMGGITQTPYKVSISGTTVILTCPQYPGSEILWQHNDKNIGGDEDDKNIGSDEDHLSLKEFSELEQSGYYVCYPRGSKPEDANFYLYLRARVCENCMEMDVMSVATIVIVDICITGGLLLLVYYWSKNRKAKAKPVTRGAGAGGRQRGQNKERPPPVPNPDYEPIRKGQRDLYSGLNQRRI

expansion of Jurkat cells during 48 hours of culture (hemocytometer count): 1.9 times
Substance: biotin anti-human CD3ε (OKT3) antibody coated on M280 streptavidin Dynabeads
